Results reported in paper PMC9239094 (mBio, 2022).

B1: Sphingobacterium wenxiniae GldM′ (GldM truncated after the first periplasmic D1 domain, twin-Strep-tagged) (domain or fragment)
chain: MAGKKETPRQRMIGILYLVLLGLVALNVSDSILDAFKNLGNSLNTSTQNTQAGIDNMFLAFRETKLKENPERAQPILQKAEQAQALVQQLTSKVGELTTLLEGEGGGLDEETGDVKYRSSTDISARLMINEGRAKELREVITKTKAELLTLTNNEINLTLEAEDPAPRGGIKKTWEQANFGDGIPLTAAITALEKINADAKNAESAVVKHIFGKMDQAVVNLDQENLYFQGQFGSWSHPQFEKGGGSGGGSGGGSWSHPQFEK
B2: Porphyromonas gingivalis PorM′ (PorM truncated after the first periplasmic D1 domain, twin-Strep-tagged) (domain or fragment)
chain: MAVGSNGNANRQKMINLMYLVFIAMMALNVSSEVLDGFDKVDKSLTSSIDGSDKRNNLVLSELNTAYRTNPEKVKVWYERSLVLQKEADSLCTFIDDLKLAIARESDGKDAKVNDIRRKDNLDASSVVMLNPINGKGSTLRKEVDKFRELVATLMTDKAKLKLIEQALNTESGTKGKSWESSLFENMPTVAAITLLTKLQSDVRYAQGEVLADLVKSVDVGDYRVNS
B3: Schleiferia thermophila GldM′ (GldM truncated after the first periplasmic D1 domain, twin-Strep-tagged) (domain or fragment)
chain: MAQGKLSPRQRMINMMYLVLTALLALNISKDILEALTKLNEDLSSTVMTVEKKLAFIYQAFDLAASENPEKAGVWRDKAYEVKKQADELHNYLEGIKNDLIEITGGIDEKTNRPKGLDNREKVANYLLVNEGGKAREIRARLEQFRDNMKQYVDEEAALINMLEALFNTEKKKVGDVMIEWENATFEHFPLAAVIPFITGIQANVRNAEADIISHLQRNIGKTDLKFTDENLYFQGQFGSWSHPQFEKGGGSGGGSGGGSWSHPQFEK
B4: Capnocytophaga canimorsus GldM″ (GldM truncated after the D2 periplasmic domain, twin-Strep-tagged) (domain or fragment)
chain: MAGGNSPRQKMINLMYLVFISMLALNMGKEVLSAFGLMNEKLEASNEKANNANINAIQALEQNNAENPDQFAEAFQKSKKVKELSDSFYNYIEGIKGEVMNQVGEDKKDYQVMDKSDYLDQKFFVGDNYKPEGEEFVRQINDYKTQLVELLGGKEGTYGELVGKIDGNFNTNDVVDREGVTRKWLNYNFEGFPYIASVAKLSMMQSDIRATEQEVYAEMLKGQLKSQISMTNYTTLLEQSKGAYYQGESFDGAIVLGRKDASTRPNEVELMLDGRKLSASEFQIEDGKVKLKVGAGNAGEHKITGNLYFDQDGKRIAVPVSQVFSTIPKPENLYFQGQFGSWSHPQFEKGGGSGGGSGGGSWSHPQFEK
B5: Porphyromonas gingivalis PorL (natural protein)
chain: MGHYRRYKNILEMYLASHKGRRLLNIVYSWGAAVVILGALFKLLHLPMGNEMLFVGMITEFLVFFISGFEKPAMEYHWEEVFPELDSKNPMDRREMEQRREYLREKAKEAAAYAERPSSVRLASASLGTQPQEQPKPATPFQSQLTGILPEEQIQRLSEGIDKLAEAGEQLARIGRTAAAMTESYEQMQADQEGLRLNSQSYIQQMESLSRNISGLNTIYEIQLKGISSQIDTIDRINRGLAHIRDMYDNSVIDSSSFRNENERMARQLTQLNEVYARLLQALTTNVGLPGMPGNFGASNPSSSGSSPL

Columns and labels:
Assay in all cases: cryo-EM structure; single-particle cryo-EM of the complex purified in LMNG (Strep-Tactin XT, then SEC); samples at A280 of 1 on Quantifoil Au R1.2/1.3 grids, blotted at 4°C; SthGldLM′ also with fluorinated octyl maltoside in buffer W (100 mM Tris-HCl pH 8.0, 150 mM NaCl, 1 mM EDTA) plus 0.01% LMNG
[1] = molecular target: Capnocytophaga canimorsus GldL (Capnocytophaga canimorsus)
[2] = molecular target: Sphingobacterium wenxiniae GldL (Sphingobacterium wenxiniae)
[3] = molecular target: Schleiferia thermophila GldL (Schleiferia thermophila)
[4] = molecular target: the molecule itself

Molecule	stoichiometry N [4]	also measured
Capnocytophaga canimorsus GldL (natural protein)	–	stoichiometry N [1]: 5
Sphingobacterium wenxiniae GldL (natural protein)	–	stoichiometry N [2]: 5
Schleiferia thermophila GldL (natural protein)	–	stoichiometry N [3]: 5
B1	2	–
B2	2	–
B3	2	–
B4	2	–
B5	5	–
